These results are taken from patent US20060127409A1 (published 2006).

Assay [1] has as its target T1, HLA-A0201 molecule on T2 cells (TAP-, HLA-A0201+) (human).
T1 construct: Empty, thermolabile HLA-A0201 on TAP-deficient T2 cells, stabilised by added peptide; surface level read with mAb BB7.2; also called HLA-A2.1; HLA-A2
Kind of assay: T2 binding and stabilization assay, flow cytometry with BB7.2. How it is done:
(§1) T2 cells (TAP-, HLA-A0201⁺) were incubated overnight at 37° C. at a concentration of 1×10⁶ cells/ml in FCS-free RPMI medium supplemented with 5 μg/ml human β₂m (Sigma, St Louis, Mo.) in the absence (negative control) or presence of either a positive reference tyrosinase peptide or test peptides at various final concentrations (50, 10, 1, and 0.1 micrograms (μg)/ml). Following a 4-hour incubation with 5 μg/ml brefeldin A (Sigma), T2 cells were labeled for 30 minutes at 4° C. with a saturating concentration of anti-HLA-A2.1 (BB7.2) mAb, then washed twice. Cells were then incubated for 30 minutes, 4° C. with a saturating concentration of FITC-conjugated goat IgG F(ab′)2 anti-mouse Ig (Caltag, San Francisco, Calif.), washed twice, fixed in PBS/1% paraformaldehyde and analyzed using a FACS Calibur® cytofluorometer (Becton Dickinson, Immunocytometry Systems, San Jose, Calif.)
(§2) The mean intensity of fluorescence (MIF) observed for each peptide concentration (after dividing by the MIF in the absence of peptide) was used as an indication of peptide binding and expressed as a “fluorescence index.” Stabilization assays were performed similarly. Following initial evaluation of peptide binding at time 0, cells were washed in RPMI complete medium to remove free peptides and incubated in the continuous presence of 0.5 μg/ml brefeldin-A for 2, 4, 6 or 8 hours.

Assay [2] deals with T1, HLA-A0201 molecule on T2 cells (TAP-, …). As to the kind of experiment: refers to the T2 assay. How it is done: as §1, §2

B1: p210Cn native (p210-b3a2) (peptide)
peptide: KALQRPVAS
B1: the binding result in assay [1] was “binds”.

B2: b2a2 A3 (analogue) (peptide)
peptide: YLINKEEAL
notes: Synthetic analogue of b2a2A; also called YLINKEEAL
For B2, the binding result in assay [1] is “binds”.

B3: b2a2 A5 (analogue) (peptide)
peptide: YLINKVEAL
notes: Synthetic analogue of b2a2A; also called YLINKVEAL
For the molecule B3, the binding result in assay [1] was “binds”.

B4: b2a2 A4 (analogue) (peptide)
peptide: YLINKEEAV
notes: Synthetic analogue of b2a2A
For the molecule B4, the binding result in assay [1] is “binds”.

B5: CMLA2 native (p210-b3a2) (peptide)
peptide: SSKALQRPV
notes: Synthetic 9-mer
With B5, the binding result in assay [2] is on record as “binds”.
